Laboratory results as given in PMC2600746.

Biological target: GST-FoxK[414-654] (Drosophila melanogaster, UniProt A0JL24 414-654)
Experiment: competition EMSA

B1: GAS (dsDNA)
DNA 1: GCGTCTTTTCCGGGAAATACAT
DNA 2: ATGTATTTCCCGGAAAAGACGC
B1: no binding.
